These results are taken from publication doi:10.1101/2024.12.17.628889.

This test concerns the target wild-type PERK BiFC construct (pEZY BiFC pre-NV(CV)-PERK) (human) (UniProt Q9NZJ5). Nature of the test: split reporter.
Chain of UniProt Q9NZJ5 (Q9NZJ5 30-1116): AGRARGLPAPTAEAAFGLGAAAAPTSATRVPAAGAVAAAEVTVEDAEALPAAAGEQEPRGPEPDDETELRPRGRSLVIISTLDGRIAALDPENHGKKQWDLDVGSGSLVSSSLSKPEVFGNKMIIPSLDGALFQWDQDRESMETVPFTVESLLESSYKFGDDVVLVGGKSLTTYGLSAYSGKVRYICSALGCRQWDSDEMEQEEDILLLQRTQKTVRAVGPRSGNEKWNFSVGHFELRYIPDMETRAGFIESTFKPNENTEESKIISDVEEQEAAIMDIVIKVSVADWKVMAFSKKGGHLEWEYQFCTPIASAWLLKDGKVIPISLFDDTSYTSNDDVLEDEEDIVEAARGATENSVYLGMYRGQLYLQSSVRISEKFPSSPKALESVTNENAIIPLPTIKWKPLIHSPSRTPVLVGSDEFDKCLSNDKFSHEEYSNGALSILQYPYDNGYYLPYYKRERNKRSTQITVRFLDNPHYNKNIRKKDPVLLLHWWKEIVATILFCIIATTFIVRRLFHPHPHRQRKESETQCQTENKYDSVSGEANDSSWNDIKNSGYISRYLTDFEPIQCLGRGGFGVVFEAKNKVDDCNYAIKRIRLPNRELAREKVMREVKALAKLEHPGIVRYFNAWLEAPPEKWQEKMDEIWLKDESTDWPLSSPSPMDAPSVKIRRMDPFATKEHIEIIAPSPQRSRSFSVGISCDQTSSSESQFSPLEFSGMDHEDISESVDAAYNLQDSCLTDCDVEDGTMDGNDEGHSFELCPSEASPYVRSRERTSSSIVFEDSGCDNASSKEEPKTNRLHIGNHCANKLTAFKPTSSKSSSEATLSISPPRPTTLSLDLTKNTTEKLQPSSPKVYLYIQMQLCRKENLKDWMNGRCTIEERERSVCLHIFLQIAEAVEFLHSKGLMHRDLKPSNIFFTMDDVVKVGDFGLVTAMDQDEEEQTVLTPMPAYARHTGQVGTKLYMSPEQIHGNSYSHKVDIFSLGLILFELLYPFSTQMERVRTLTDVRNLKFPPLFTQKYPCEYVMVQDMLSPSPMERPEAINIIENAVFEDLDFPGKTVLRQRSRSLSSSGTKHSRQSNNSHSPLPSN

For “CDNF K122A BiFC construct (natural protein)”, the BiFC fluorescent signal relative to wt CDNF and the other mutants was found to be 5 times lower.
As for “CDNF BiFC construct (pEZY BiFC pre-CDNF-NV(CV)) (from UniProt Q49AH0 25-187) (natural protein)”, the BiFC fluorescence intensity relative to the CDNF-IRE1α interaction came to 7 times higher.
